From patent EP2970434B1 (The Regents of the University of California, dated 2018)
Positions count from the first letter of the chain named. Blank lines part the entries; values can stand above or below the molecule they belong to.

Experiments:
[1] = molecular target: Glu-plasminogen (Homo sapiens (Human)) (UniProt P00747); experiment: competition of Glu-Plg (2 µM) binding to PMA-stimulated U937 cells by µ-plasmin-KD1L17R-KT complex, read by plasmin generation; Kd from IC50 by Cheng-Prusoff
human plasmin [2] = molecular target: T1, human plasmin (human, UniProt P00747 97-810, limits assumed); experiment: cell-based or functional assay
human plasmin [3] = molecular target: T1, human plasmin; experiment: plasmin amidolytic activity inhibition, S-2251 substrate
[4] = molecular target: T2, active site-blocked human plasmin (human, UniProt P00747 97-810, limits assumed, active site blocked with a chloromethylketone inhibitor (e.g., D-Val-Phe-Lys chloromethylketone dihydrochloride)); experiment: SPR (BiaCore), active site-blocked plasmin on CM5 chip, polypeptide as analyte at 1-10 µM
T2 construct: also called immobilized plasmin

[5] = molecular target: T3, factor VIIa-tissue factor (soluble human tissue factor 100 nM and factor VIIa 50 nM) (human), P08709; experiment: factor VIIa-tissue factor amidolytic activity inhibition, S-2288 substrate; conditions: remark: other sources report otherwise
T3 chain 1: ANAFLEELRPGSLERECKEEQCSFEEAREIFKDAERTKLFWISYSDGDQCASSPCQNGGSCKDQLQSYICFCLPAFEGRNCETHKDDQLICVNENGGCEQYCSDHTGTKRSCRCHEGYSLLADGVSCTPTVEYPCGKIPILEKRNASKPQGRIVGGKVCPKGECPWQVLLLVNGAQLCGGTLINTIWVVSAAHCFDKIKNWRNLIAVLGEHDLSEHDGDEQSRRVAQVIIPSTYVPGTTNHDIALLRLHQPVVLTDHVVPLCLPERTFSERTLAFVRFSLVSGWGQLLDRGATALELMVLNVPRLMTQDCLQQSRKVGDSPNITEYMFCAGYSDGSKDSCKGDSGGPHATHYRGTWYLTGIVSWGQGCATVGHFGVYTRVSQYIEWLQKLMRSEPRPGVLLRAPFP
T3 chain 2: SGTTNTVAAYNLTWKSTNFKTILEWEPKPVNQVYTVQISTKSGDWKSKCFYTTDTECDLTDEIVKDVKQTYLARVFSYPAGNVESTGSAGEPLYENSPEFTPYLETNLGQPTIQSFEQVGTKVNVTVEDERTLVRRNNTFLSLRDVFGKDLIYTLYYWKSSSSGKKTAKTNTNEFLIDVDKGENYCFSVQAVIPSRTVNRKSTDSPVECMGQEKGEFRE

[6] = molecular target: T4, tissue plasminogen activator (Alteplase) (UniProt P00750 36-562); experiment: SPR, lower end tied to tPA by paragraph 202
T4 construct: also called tPA

Glu-plasminogen [7] = molecular target: T5, Glu-plasminogen (Homo sapiens (Human), UniProt P00747 20-810, Native glycoprotein; the glycans are not carried by the letters.); experiment: SPR, upper end tied to Glu-Plg by paragraph 202
T5 construct: also called Glu-Plg

[8] = molecular target: T4, tissue plasminogen activator (Alteplase); experiment: SPR (Biacore T100, 25 °C), tPA on CM5 chip, 1:1 binding model
Glu-plasminogen [9] = molecular target: T5, Glu-plasminogen; experiment: SPR (Biacore T100, 25 °C), Glu-Plg on CM5 chip, 1:1 binding model
human plasmin [10] = molecular target: T1, human plasmin; experiment: plasmin amidolytic activity inhibition, S-2251 substrate, 3 nM plasmin, tight-binding equation
[11] = molecular target: T2, active site-blocked human plasmin; experiment: SPR (BiaCore), active site-blocked plasmin on CM5 chip, polypeptide as analyte at 1-12 µM

T4 sequence (P00750 36-562 limits assumed): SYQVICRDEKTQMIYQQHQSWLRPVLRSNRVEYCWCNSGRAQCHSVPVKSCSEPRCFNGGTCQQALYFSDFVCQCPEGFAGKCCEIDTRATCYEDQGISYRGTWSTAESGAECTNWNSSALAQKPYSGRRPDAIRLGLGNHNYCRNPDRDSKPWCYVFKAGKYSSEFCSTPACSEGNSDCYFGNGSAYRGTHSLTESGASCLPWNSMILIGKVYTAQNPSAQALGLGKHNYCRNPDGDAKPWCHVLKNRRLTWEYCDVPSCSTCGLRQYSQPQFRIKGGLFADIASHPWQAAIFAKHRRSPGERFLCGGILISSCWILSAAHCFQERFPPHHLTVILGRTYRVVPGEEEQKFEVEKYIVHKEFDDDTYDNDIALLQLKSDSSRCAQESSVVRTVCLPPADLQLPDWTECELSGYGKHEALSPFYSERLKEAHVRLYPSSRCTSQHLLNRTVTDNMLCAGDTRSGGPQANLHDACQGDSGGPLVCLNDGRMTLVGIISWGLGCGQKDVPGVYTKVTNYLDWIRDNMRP
T5 sequence (P00747 20-810 limits assumed): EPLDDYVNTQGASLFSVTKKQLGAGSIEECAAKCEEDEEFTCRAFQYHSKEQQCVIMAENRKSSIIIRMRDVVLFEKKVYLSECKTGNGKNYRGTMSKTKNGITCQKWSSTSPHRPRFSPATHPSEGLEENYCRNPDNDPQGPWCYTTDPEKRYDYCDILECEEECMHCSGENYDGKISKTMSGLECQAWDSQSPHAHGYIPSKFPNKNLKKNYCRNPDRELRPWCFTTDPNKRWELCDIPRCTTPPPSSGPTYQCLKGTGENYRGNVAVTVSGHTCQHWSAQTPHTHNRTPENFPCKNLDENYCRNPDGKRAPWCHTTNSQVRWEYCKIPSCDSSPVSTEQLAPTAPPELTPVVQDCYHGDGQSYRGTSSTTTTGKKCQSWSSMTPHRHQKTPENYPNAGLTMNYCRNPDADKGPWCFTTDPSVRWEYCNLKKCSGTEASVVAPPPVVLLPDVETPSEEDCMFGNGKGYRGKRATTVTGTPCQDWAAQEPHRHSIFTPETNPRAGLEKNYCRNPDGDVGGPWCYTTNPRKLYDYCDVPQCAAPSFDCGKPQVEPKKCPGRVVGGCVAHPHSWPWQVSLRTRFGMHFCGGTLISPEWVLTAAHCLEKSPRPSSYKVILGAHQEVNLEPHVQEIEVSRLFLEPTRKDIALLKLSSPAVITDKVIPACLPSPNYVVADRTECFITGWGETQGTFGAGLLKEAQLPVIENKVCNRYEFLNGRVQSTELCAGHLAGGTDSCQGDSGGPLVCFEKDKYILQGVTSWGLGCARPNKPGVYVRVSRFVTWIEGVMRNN
T1 sequence (P00747 97-810 limits assumed): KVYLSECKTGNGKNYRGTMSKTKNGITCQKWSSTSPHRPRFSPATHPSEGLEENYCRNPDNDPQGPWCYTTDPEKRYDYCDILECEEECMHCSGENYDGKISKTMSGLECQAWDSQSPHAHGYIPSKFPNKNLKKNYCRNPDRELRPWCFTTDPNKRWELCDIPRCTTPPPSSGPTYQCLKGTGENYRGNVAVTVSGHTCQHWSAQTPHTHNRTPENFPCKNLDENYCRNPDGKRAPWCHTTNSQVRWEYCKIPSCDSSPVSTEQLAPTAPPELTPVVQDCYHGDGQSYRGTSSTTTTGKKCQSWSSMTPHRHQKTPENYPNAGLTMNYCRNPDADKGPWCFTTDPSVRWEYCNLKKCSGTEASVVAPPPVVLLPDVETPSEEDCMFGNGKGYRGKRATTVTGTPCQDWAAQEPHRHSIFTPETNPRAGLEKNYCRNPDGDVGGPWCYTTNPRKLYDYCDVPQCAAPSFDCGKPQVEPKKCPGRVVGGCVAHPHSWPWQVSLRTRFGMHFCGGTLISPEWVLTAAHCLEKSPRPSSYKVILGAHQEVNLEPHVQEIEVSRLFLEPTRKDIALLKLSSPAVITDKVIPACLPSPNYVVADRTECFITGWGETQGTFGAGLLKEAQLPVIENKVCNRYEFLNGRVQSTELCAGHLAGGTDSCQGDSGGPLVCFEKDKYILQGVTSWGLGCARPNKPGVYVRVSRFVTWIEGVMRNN
T2 sequence (P00747 97-810 limits assumed): as above
Chain of Glu-plasminogen (Homo sapiens (Human)) (P00747 20-810 limits assumed): as the sequence (P00747 20-810 limits assumed) above

Kd [1]: 300 nM
Molecule: µ-plasmin-KD1L17R-KT complex (from UniProt P00747 561-580; P00747 581-810)

IC50 (nM), inhibition of plasmin activity (S2251 hydrolysis) (human plasmin [2]): 1.8 nM | Ki (human plasmin [3]): 0.49 nM | Ki [5]: 5870 nM | Kd [4]: 313 nM
B2: plasmin-inhibiting polypeptide comprising the amino acid sequence set forth in SEQ ID NO:3 (designed binder)
chain: NAEICLLPLDTGPCRARLLRYYYDRYTQSCRQFLYGGCEGNANNFYTWEACDDACWRIEK
notes: Expressed in E. coli; also called DM; 60B

More lines, now with the values behind:

B1: plasmin-inhibiting polypeptide comprising the amino acid sequence set forth in SEQ ID NO:5 (designed binder)
chain: B2 chain with T11Y
notes: Expressed in E. coli; also called 60A
IC50 (nM), inhibition of plasmin activity (S2251 hydrolysis) (human plasmin [2]): 3.4 nM | Ki (human plasmin [3]): 2.36 nM | Kd [4]: 130 nM

B3: KD1L17R-KT (designed binder)
chain: GNNAEICLLPLDYGPCRARLLRYYYDRYTQSCRQFLYGGCEGNANNFYTWEACDDACWRIEKVPK
notes: Both have C-terminal lysine; also called IIa cleaved KD1L17R-VT
Kd [6]: 200 to 300 nM | Kd (Glu-plasminogen [7]): 200 to 300 nM | Kd [8]: 210 nM | koff [8]: 0.00019 s⁻¹ | kon [8]: 910 M⁻¹ s⁻¹ | Kd (Glu-plasminogen [9]): 280 nM | koff (Glu-plasminogen [9]): 0.00031 s⁻¹ | kon (Glu-plasminogen [9]): 1100 M⁻¹ s⁻¹ | Ki (human plasmin [10]): 1 nM

B4: plasmin-inhibiting polypeptide comprising the amino acid sequence set forth in SEQ ID NO:4 (designed binder)
chain: NAEICLLPLDTGPCRARLLRYYYDRYTQSCRQFLYGGCEGNANNFYTWEACDDACWRIEKVPK
IC50 (nM), inhibition of plasmin activity (S2251 hydrolysis) (human plasmin [2]): 0.8 nM

B5: plasmin-inhibiting polypeptide comprising the amino acid sequence set forth in SEQ ID NO:6 (designed binder)
chain: B4 chain with T11Y
notes: Purified recombinant polypeptide; also called 63-residue
IC50 (nM), inhibition of plasmin activity (S2251 hydrolysis) (human plasmin [2]): 1.8 nM | Kd [11]: 290 nM
